A word on the Kd: it is the free concentration of one partner at which half of the binding sites on the other are occupied at equilibrium, for simple one-to-one binding. Low values mean higher affinity, high ones lower affinity.

This note sets out measurements from patent US20260062488A1 (AbbVie / Abbott, published 2026).

What all share (assay): SPR (Biacore), N = 1
Assay [1] addresses T1, human FcγRIIb extracellular domain protein (human, UniProt P31994 43-217).
T1 construct: extracellular domain; also called hFcγRIIb
T1 sequence (looked up): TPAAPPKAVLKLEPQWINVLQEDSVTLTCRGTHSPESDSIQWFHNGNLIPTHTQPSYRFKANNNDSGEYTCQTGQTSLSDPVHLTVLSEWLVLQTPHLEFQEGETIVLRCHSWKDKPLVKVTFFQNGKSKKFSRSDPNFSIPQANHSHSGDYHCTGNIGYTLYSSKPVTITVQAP

The target in assay [2] is T2, human FcγRI extracellular domain protein (human, UniProt P12314 16-292).
T2 construct: extracellular domain; also called hFcγRI
T2 sequence (P12314 16-292): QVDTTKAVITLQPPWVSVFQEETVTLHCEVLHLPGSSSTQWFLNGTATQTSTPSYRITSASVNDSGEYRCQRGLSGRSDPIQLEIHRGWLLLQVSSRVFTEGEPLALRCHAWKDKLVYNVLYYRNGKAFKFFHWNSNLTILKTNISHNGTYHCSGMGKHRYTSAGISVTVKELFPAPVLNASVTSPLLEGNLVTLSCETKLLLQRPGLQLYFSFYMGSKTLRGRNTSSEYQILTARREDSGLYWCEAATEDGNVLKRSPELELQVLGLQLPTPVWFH

For assay [3], the target named is T3, human FcγRIIa (H131) extracellular domain protein (human, UniProt P12318 34-217).
T3 construct: extracellular domain; also called hFcγRIIa (H131); FcγRIIa 131H
T3 sequence (looked up): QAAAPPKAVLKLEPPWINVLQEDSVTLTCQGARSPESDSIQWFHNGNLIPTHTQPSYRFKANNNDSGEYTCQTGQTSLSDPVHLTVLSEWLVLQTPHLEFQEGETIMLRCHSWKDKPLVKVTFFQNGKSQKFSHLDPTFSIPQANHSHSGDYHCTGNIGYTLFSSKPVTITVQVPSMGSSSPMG

Assay [4] has as its target T4, human FcγRIIIa (V158) extracellular domain protein (human, UniProt P08637 17-208).
T4 construct: extracellular domain; also called hFcγRIIIa (V158); FcγRIIIa158V

In assay [5] the target is T5, human FcγRIIa (R131) extracellular domain protein (human, UniProt P12318 34-217).
T5 construct: extracellular domain; also called hFcγRIIa (R131); FcγRIIa 131R
T5 sequence (looked up): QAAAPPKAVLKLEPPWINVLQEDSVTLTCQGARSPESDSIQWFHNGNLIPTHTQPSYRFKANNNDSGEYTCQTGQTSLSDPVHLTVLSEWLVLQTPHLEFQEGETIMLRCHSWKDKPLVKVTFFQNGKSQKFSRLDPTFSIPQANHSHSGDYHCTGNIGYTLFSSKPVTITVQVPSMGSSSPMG

The target of assay [6] is T6, human FcγRIIIa (F158) extracellular domain protein (human, UniProt P08637 17-208).
T6 construct: extracellular domain; also called hFcγRIIIa (F158); FcγRIIIa158F
T6 sequence (P08637 17-208): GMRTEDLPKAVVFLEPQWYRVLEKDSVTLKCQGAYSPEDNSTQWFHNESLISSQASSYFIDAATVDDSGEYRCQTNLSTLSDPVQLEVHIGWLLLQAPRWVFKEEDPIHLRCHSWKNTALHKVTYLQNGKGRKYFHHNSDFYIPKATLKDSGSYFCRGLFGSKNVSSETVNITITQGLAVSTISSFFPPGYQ

T4 sequence (P08637 17-208 F176V limits assumed): as the sequence (P08637 17-208) above, with F160V counted along it

B1: Ab-h1.9d-WT (antibody, human IgG1, kappa)
heavy: not shown
light: DIQMTQSPSSLSASVGDRVTITCHASQDISDNIGWLQQKPGKSFKLLIYHGTNLEDGVPSRFSGSGSGTDYTLTISSLQPEDFATYYCVQYAQFPWTFGGGTKVEIKRTVAAPSVFIFPPSDEQLKSGTASVVCLLNNFYPREAKVQWKVDNALQSGNSQESVTEQDSKDSTYSLSSTLTLSKADYEKHKVYACEVTHQGLSSPVTKSFNRGEC
notes: IgG1/kappa with D356E and L358M (EU); also called Anti-human α4β7 (AC-166667) hu IgG1/k WT mAb
As for B1, the Kd stood at 12 µM in assay [1]; 0.007 µM in assay [2]; 4 µM in assay [3]; 0.1 µM in assay [4]; 5.2 µM in assay [5]; 3.1 µM in assay [6].
